Laboratory results as given in patent CN106749644A.

Experiments:
[1] = target: 不同的HCV包膜糖蛋白 (on HCV pseudovirus, HCVpp); assay: cell-based or functional assay
[2] = target: HCV-E2蛋白 (Hepatitis C virus (HCV)); assay: SPR, BiaCore X-100; antibody captured by goat anti-human IgG on CM5 chip, HCV-E2 as analyte

B1: 全人源抗HCV的单克隆中和抗体TRN1001 (antibody, V domains shown)
VH: QVQLVQSGAEVKKPGSSVKVSCKVSGDRINNYAINWVRQAPGQGLEWMGRIIGIVGLANYAQKFQGRVTMTADKSTSTGYMELSTLKSDDTAMYYCATDNRILAAAPSHYSYSMDLWGPGTTVTVSS
VL: QSALTQPASVSGSPGQSITISCTGTSSDVGGDNYVSWYQQYTGKAPKVMIYDVSKRPSGVSNRFSGSKSGNTASLTISGLQAEDEADYYCCSYTSDNSYVFGSGTKVIVL
Luciferase活性 (荧光值), HCVpp infection of Huh7 cells [1]: 100%
Kd [2]: 20.3 nM
koff [2]: 0.00011 s⁻¹
kon [2]: 5440 M⁻¹ s⁻¹
